Results taken from the supplement of paper PMC9112550, “Optimization of the antimicrobial peptide Bac7 by deep mutational scanning” (BMC Biology, 2022).

System: Escherichia coli TOP10
Test: shrunken log2 fold change of peptide-encoding DNA abundance (4.5 h post-induction vs induction); higher = less antimicrobial activity (less host growth inhibition)
Settings: time post-induction: 4.5 h; library: site-saturation at positions 5, 18, 19, 20
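Further: peptides expressed intracellularly from a pBAD plasmid library in pooled LB shake-flask culture, induced with 0.3% L-arabinose, DNA abundance read by NGS, three biological replicates, DESeq2 with apeglm shrinkage.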

RRIRLRPPRLPRPRPRPAHCPRP
shrunken log2 fold change: 0.0914

RRIRLRPPRLPRPRPRPALNPRP
shrunken log2 fold change: -0.0159

RRIRLRPPRLPRPRPRPAMFPRP
shrunken log2 fold change: -0.0833

RRIRLRPPRLPRPRPRPANNPRP
shrunken log2 fold change: -0.116

RRIRLRPPRLPRPRPRPANWPRP
shrunken log2 fold change: 0.0804

RRIRLRPPRLPRPRPRPAPSPRP
shrunken log2 fold change: 0.163

RRIRLRPPRLPRPRPRPAQAPRP
shrunken log2 fold change: -0.0635

RRIRLRPPRLPRPRPRPAQIPRP
shrunken log2 fold change: 0.214

RRIRLRPPRLPRPRPRPAQNPRP
shrunken log2 fold change: 0.57

RRIRLRPPRLPRPRPRPARPPRP
shrunken log2 fold change: 0.449

RRIRLRPPRLPRPRPRPASKPRP
shrunken log2 fold change: -0.116

RRIRLRPPRLPRPRPRPATMPRP
shrunken log2 fold change: -0.366

RRIRLRPPRLPRPRPRPATVPRP
shrunken log2 fold change: -0.138

RRIRLRPPRLPRPRPRPAVQPRP
shrunken log2 fold change: -0.249

RRIRLRPPRLPRPRPRPAWGPRP
shrunken log2 fold change: 0.444

RRIRLRPPRLPRPRPRPAYFPRP
shrunken log2 fold change: -0.364

RRIRLRPPRLPRPRPRPCASPRP
shrunken log2 fold change: 0.259

RRIRLRPPRLPRPRPRPCCQPRP
shrunken log2 fold change: -0.194

RRIRLRPPRLPRPRPRPCDSPRP
shrunken log2 fold change: -0.165

RRIRLRPPRLPRPRPRPCEAPRP
shrunken log2 fold change: 0.125

RRIRLRPPRLPRPRPRPCEGPRP
shrunken log2 fold change: -0.199

RRIRLRPPRLPRPRPRPCFCPRP
shrunken log2 fold change: -0.279

RRIRLRPPRLPRPRPRPCFHPRP
shrunken log2 fold change: -0.49

RRIRLRPPRLPRPRPRPCGMPRP
shrunken log2 fold change: -0.0649

RRIRLRPPRLPRPRPRPCGSPRP
shrunken log2 fold change: -0.105

RRIRLRPPRLPRPRPRPCHMPRP
shrunken log2 fold change: -0.0107

RRIRLRPPRLPRPRPRPCHTPRP
shrunken log2 fold change: -0.173

RRIRLRPPRLPRPRPRPCIMPRP
shrunken log2 fold change: -0.0711

RRIRLRPPRLPRPRPRPCINPRP
shrunken log2 fold change: -0.209

RRIRLRPPRLPRPRPRPCIRPRP
shrunken log2 fold change: -0.265

RRIRLRPPRLPRPRPRPCKNPRP
shrunken log2 fold change: -0.0458

RRIRLRPPRLPRPRPRPCLLPRP
shrunken log2 fold change: -0.421

RRIRLRPPRLPRPRPRPCLSPRP
shrunken log2 fold change: 0.00058

RRIRLRPPRLPRPRPRPCLWPRP
shrunken log2 fold change: -0.000705

RRIRLRPPRLPRPRPRPCMCPRP
shrunken log2 fold change: -0.967

RRIRLRPPRLPRPRPRPCPAPRP
shrunken log2 fold change: -0.00808

RRIRLRPPRLPRPRPRPCPGPRP
shrunken log2 fold change: -0.219

RRIRLRPPRLPRPRPRPCSAPRP
shrunken log2 fold change: -0.372

RRIRLRPPRLPRPRPRPCSSPRP
shrunken log2 fold change: -0.157

RRIRLRPPRLPRPRPRPCVSPRP
shrunken log2 fold change: -0.108

RRIRLRPPRLPRPRPRPCYKPRP
shrunken log2 fold change: -0.133

RRIRLRPPRLPRPRPRPCYQPRP
shrunken log2 fold change: -0.476

RRIRLRPPRLPRPRPRPDAVPRP
shrunken log2 fold change: -0.199

RRIRLRPPRLPRPRPRPDAWPRP
shrunken log2 fold change: 0.457

RRIRLRPPRLPRPRPRPDCLPRP
shrunken log2 fold change: -0.0212

RRIRLRPPRLPRPRPRPDCPPRP
shrunken log2 fold change: 0.0832

RRIRLRPPRLPRPRPRPDDNPRP
shrunken log2 fold change: -0.138

RRIRLRPPRLPRPRPRPDEAPRP
shrunken log2 fold change: 0.189

RRIRLRPPRLPRPRPRPDFFPRP
shrunken log2 fold change: 0.0131

RRIRLRPPRLPRPRPRPDGFPRP
shrunken log2 fold change: 0.052

RRIRLRPPRLPRPRPRPDHQPRP
shrunken log2 fold change: -0.118

RRIRLRPPRLPRPRPRPDIPPRP
shrunken log2 fold change: -0.0741

RRIRLRPPRLPRPRPRPDKGPRP
shrunken log2 fold change: -0.162

RRIRLRPPRLPRPRPRPDLEPRP
shrunken log2 fold change: 0.0992

RRIRLRPPRLPRPRPRPDLWPRP
shrunken log2 fold change: 0.774

RRIRLRPPRLPRPRPRPDMRPRP
shrunken log2 fold change: -0.0825

RRIRLRPPRLPRPRPRPDNSPRP
shrunken log2 fold change: -0.0436

RRIRLRPPRLPRPRPRPDPNPRP
shrunken log2 fold change: 0.168

RRIRLRPPRLPRPRPRPDQRPRP
shrunken log2 fold change: 0.274

RRIRLRPPRLPRPRPRPDQVPRP
shrunken log2 fold change: 0.0207

RRIRLRPPRLPRPRPRPDRPPRP
shrunken log2 fold change: 0.265

RRIRLRPPRLPRPRPRPDSNPRP
shrunken log2 fold change: -0.0277

RRIRLRPPRLPRPRPRPDTDPRP
shrunken log2 fold change: 0.0475

RRIRLRPPRLPRPRPRPDTEPRP
shrunken log2 fold change: -0.0195

RRIRLRPPRLPRPRPRPDTVPRP
shrunken log2 fold change: -0.399

RRIRLRPPRLPRPRPRPDVWPRP
shrunken log2 fold change: 0.127

RRIRLRPPRLPRPRPRPDYDPRP
shrunken log2 fold change: -0.496

RRIRLRPPRLPRPRPRPDYRPRP
shrunken log2 fold change: -0.0122

RRIRLRPPRLPRPRPRPECKPRP
shrunken log2 fold change: 0.0726

RRIRLRPPRLPRPRPRPEDKPRP
shrunken log2 fold change: -0.0384

RRIRLRPPRLPRPRPRPEDNPRP
shrunken log2 fold change: 0.0216

RRIRLRPPRLPRPRPRPEELPRP
shrunken log2 fold change: 0.068

RRIRLRPPRLPRPRPRPEEYPRP
shrunken log2 fold change: 0.0401

RRIRLRPPRLPRPRPRPEFTPRP
shrunken log2 fold change: -0.0622

RRIRLRPPRLPRPRPRPEGEPRP
shrunken log2 fold change: 0.624
